Data from IntAct's records for PubMed 11779178.

B1: Merlin (Homo sapiens), P35240-3 (parent)
chain: MAGAIASRMSFSSLKRKQPKTFTVRIVTMDAEMEFNCEMKWKGKDLFDLVCRTLGLRETWFFGLQYTIKDTVAWLKMDKKVLDHDVSKEEPVTFHFLAKFYPENAEEELVQEITQHLFFLQVKKQILDEKIYCPPEASVLLASYAVQAKYGDYDPSVHKRGFLAQEELLPKRVINLYQMTPEMWEERITAWYAEHRGRARDEAEMEYLKIAQDLEMYGVNYFAIRNKKGTELLLGVDALGLHIYDPENRLTPKISFPWNEIRNISYSDKEFTIKPLDKKIDVFKFNSSKLRVNKLILQLCIGNHDLFMRRRKADSLEVQQMKAQAREEKARKQMERQRLAREKQMREEAERTRDELERRLLQMKEEATMANEALMRSEETADLLAEKAQITEEEAKLLAQKAAEAEQEMQRIKATAIRTEEEKRLMEQKVLEAEVLALKMAEESERRAKEADQLKQDLQEAREAERRAKQKLLEIATKPTYPPMNPIPAPLPPDIPSFNLIGDSLSFDFKDTDMKRLSMEIEKEKVEYMEKSKHLQEQLNELKTEIEALKLKERETALDILHNENSDRGGSSKHNTIKKPQAQGRRPICI

How the values were obtained:
[1] = variants of: B1; settings: with eif3c_human EIF3C
[2] = variants of: B1; settings: with HGS
[3] = variants of: B1; settings: with HGS
[4] = variants of: B1; settings: with NF2, P35240-1
[5] = variants of: B1; settings: with sptb2_human SPTBN1, Q01082
Chain of sptb2_human SPTBN1, Q01082 (Q01082 whole entry): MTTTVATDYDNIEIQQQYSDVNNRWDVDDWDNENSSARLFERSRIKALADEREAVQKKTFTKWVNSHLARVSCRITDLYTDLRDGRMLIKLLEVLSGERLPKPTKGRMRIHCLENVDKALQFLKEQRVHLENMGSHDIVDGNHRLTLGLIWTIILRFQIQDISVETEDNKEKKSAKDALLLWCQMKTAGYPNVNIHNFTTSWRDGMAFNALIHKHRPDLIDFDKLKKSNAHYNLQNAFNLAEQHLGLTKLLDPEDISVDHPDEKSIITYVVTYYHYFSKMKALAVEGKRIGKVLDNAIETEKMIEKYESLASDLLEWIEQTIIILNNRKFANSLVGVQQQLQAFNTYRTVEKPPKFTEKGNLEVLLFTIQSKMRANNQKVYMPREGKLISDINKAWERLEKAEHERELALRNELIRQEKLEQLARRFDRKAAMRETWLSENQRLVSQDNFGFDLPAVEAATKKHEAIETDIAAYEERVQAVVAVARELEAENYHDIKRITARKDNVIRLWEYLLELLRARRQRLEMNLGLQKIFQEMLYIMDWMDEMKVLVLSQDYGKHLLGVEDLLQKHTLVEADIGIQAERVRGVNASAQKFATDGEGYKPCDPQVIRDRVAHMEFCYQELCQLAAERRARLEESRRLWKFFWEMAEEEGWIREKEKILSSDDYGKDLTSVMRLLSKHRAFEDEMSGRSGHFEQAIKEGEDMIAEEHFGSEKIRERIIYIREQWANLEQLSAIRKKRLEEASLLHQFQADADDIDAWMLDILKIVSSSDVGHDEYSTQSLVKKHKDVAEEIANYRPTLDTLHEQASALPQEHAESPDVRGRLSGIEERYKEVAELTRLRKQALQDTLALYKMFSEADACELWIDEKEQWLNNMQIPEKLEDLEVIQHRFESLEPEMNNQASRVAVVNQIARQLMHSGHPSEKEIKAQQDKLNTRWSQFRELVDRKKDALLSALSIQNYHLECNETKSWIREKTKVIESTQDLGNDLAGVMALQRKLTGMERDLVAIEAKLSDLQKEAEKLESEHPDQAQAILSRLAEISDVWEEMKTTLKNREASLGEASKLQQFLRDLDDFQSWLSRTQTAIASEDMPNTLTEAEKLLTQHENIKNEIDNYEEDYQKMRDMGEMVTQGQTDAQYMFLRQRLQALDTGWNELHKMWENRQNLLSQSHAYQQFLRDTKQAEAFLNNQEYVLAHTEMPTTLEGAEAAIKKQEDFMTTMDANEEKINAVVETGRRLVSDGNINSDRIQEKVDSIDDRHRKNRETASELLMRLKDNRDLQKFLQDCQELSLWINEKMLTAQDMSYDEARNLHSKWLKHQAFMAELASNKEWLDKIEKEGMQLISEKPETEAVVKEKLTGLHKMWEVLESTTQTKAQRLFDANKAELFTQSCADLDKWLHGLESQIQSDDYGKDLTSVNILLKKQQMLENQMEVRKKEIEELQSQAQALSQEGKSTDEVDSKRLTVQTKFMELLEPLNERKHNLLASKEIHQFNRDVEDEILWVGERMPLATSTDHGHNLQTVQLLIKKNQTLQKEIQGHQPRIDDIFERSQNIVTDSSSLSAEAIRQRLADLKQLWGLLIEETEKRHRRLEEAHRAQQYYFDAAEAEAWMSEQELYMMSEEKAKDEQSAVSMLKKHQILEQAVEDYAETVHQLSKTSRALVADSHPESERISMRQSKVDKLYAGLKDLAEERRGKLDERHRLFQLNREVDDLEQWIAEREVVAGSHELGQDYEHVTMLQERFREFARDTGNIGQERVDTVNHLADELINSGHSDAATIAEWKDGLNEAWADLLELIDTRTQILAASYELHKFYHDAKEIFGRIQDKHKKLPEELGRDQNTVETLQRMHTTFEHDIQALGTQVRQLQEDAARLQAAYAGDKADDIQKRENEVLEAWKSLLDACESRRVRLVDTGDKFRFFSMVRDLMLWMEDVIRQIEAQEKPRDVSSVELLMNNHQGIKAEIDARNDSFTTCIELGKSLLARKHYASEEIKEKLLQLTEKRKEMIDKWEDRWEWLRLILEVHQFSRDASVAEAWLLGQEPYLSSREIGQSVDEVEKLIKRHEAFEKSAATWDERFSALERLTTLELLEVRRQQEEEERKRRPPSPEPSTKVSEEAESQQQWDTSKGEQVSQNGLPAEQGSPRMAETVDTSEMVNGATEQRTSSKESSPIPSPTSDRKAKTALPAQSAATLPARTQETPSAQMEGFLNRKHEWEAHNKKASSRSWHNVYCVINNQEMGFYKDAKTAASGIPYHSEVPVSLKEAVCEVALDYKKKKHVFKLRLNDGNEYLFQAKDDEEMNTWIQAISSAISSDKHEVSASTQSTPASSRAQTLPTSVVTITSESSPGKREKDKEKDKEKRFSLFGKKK

MAGAIASRMSFSSLKRKQPKTFTVRIVTMDAEMEFNCEMKWKGKDLFDLVCRTLGLRETWFFGLQYTIKDTVAWLKMDKKVLDHDVSKEEPVTFHFLAKFYPENAEEELVQEITQHLFFLQVKKQILDEKIYCPPEASVLLASYAVQAKYGDYDPSVHKRGFLAQEELLPKRVINLYQMTPEMWEERITAWYAEHRGRARDEAEMEYLKIAQDLEMYGVYYFAIRNKKGTELLLGVDALGLHIYDPENRLTPKISFPWNEIRNISYSDKEFTIKPLDKKIDVFKFNSSKLRVNKLILQLCIGNHDLFMRRRKADSLEVQQMKAQAREEKARKQMERQRLAREKQMREEAERTRDELERRLLQMKEEATMANEALMRSEETADLLAEKAQITEEEAKLLAQKAAEAEQEMQRIKATAIRTEEEKRLMEQKVLEAEVLALKMAEESERRAKEADQLKQDLQEAREAERRAKQKLLEIATKPTYPPMNPIPAPLPPDIPSFNLIGDSLSFDFKDTDMKRLSMEIEKEKVEYMEKSKHLQEQLNELKTEIEALKLKERETALDILHNENSDRGGSSKHNTIKKPQAQGRRPICI [N220Y]
effect of a mutation on the interaction [1]: with no effect
effect of a mutation on the interaction [2]: increasing interaction strength
effect of a mutation on the interaction [3]: increasing interaction strength
effect of a mutation on the interaction [4]: with no effect
effect of a mutation on the interaction [5]: increasing interaction strength

MAGAIASRMSFSSLKRKQPKTFTVRIVTMDAEMEFNCEMKWKGKDRFDLVCRTLGLRETWFFGLQYTIKDTVAWLKMDKKVLDHDVSKEEPVTFHFLAKFYPENAEEELVQEITQHLFFLQVKKQILDEKIYCPPEASVLLASYAVQAKYGDYDPSVHKRGFLAQEELLPKRVINLYQMTPEMWEERITAWYAEHRGRARDEAEMEYLKIAQDLEMYGVNYFAIRNKKGTELLLGVDALGLHIYDPENRLTPKISFPWNEIRNISYSDKEFTIKPLDKKIDVFKFNSSKLRVNKLILQLCIGNHDLFMRRRKADSLEVQQMKAQAREEKARKQMERQRLAREKQMREEAERTRDELERRLLQMKEEATMANEALMRSEETADLLAEKAQITEEEAKLLAQKAAEAEQEMQRIKATAIRTEEEKRLMEQKVLEAEVLALKMAEESERRAKEADQLKQDLQEAREAERRAKQKLLEIATKPTYPPMNPIPAPLPPDIPSFNLIGDSLSFDFKDTDMKRLSMEIEKEKVEYMEKSKHLQEQLNELKTEIEALKLKERETALDILHNENSDRGGSSKHNTIKKPQAQGRRPICI [L46R]
effect of a mutation on the interaction [1]: disrupting interaction strength
effect of a mutation on the interaction [2]: decreasing interaction strength
effect of a mutation on the interaction [3]: decreasing interaction strength
effect of a mutation on the interaction [4]: disrupting interaction strength
effect of a mutation on the interaction [5]: disrupting interaction strength
